The record followed here is patent publication US20240150440A1 (LUMEN BIOSCIENCE, published 2024).

Like-named read-outs stand apart in the source and are kept apart here.

The target of test [1] is T1, recombinant SARS-CoV-2 RBD with C-terminal AviTag (SARS-CoV-2, UniProt P0DTC2 319-541). Briefly: BLI, biotinylated RBD on streptavidin biosensors; OR: over-range [Cont. 7]. For orientation: BLI is a label-free optical method that tracks binding on a fibre tip over time.
The target of test [2] is SARS-COV-2 Wuhan Reference RBD (SARS-CoV-2, UniProt P0DTC2 319-541).
The target in test [3] is T1, recombinant SARS-CoV-2 RBD with ….
The target is the same in test [4]. Briefly: BLI, biotinylated RBD on streptavidin biosensors; OR: over-range.
Test [5] has the same target. This is another data set of the same source.
The target is the same in test [6]. Briefly: BLI, biotinylated RBD on streptavidin biosensors; OR: over-range [Cont. 6].

B1: PP888 MBP-S1b-E11-H6 (VHH)
VHH: QVQLVESGGGLVQPGGSLRLSCAASGSYASIASMHWFRQAPGKEREFVAGVTSGGSTNYGDSVKGRFTISRDNAKNTVYLQMNSLKPEDTAVYYCNALAGANYESQWEEYNYWGQGTQVTVSS
notes: Form: Monomer
As a reminder, the Kd is a measure of binding affinity in units of concentration. As for B1, in test [1], the Kd was around 5.29 µM.

B2: PP788 (VHH, not shown: large carriers; small tags and cut ends)
VHH: QVQLVESGGGLVQPGGSLRLSCAASGSIESINAIHWFRQAPGKAREEVAAITENDVDYYADSVKGRFTISRDNAKNTVYLQMNSLKPEDTAVYYCASLSSGYQYVGFRYWGQGTQVTVSS
As usually defined, the EC50 is the concentration giving half of the maximal effect. A high value points to a need for much substance. In turn, B2 came in with a concentration giving a half-maximal response (EC50) in test [2] of 1.56 nM.

B3: MBP-5HVZ-R5d-E1-H6 (VHH, not shown: large carriers; small tags and cut ends)
VHH: QVQLVESGGGLVQPGGSLRLSCAASGSSFSINWMHWFRQAPGKQREGVASINSTGSDYYADSVKGRFTISRDNAKNTVYLQMNSLKPEDTAVYYCAAAITQPMPQGKGAPPGFYYWGQGTQVTVSS
Turning to B3, the Kd in test [3] was 7.98 nM.

B4: PP806 MBP-R2B-E6-H6 (VHH)
VHH: QVQLVESGGGLVQPGGSLRLSCAASGGVTRGNAMAWYRQAPGKQREIVAAIDNGGSHAYGDSVKGRFTISRDNAKNTVYLQMNSLKPEDTAVYYCAVFPDHDSEQASIDRVYWGQGTQVTVSS
notes: Form: Monomer
With B4, the Kd in test [4] was around 1400 nM.

B5: R5A-B7 (competition ELISA sample) (VHH)
VHH: QVQLVESGGGLVQPGGSLRLSCAASGAFFSYGAIHWFRQAPGKQREEVAAITSGGSTGYADSVKGRFTISRDNAKNTVYLQMNSLKPEDTAVYYCNAGVVWLPSNAAYNLWGQGTQVTVSS
In the case of B5, the Kd in test [5] came out at 13.1 nM.

B6: PP887 MBP-S1b-E7-H6 (VHH)
VHH: QVQLVESGGGLVQPGGSLRLSCAASGGEFSDNGLHWFRQAPGKQREFVATASSDGSTQYRDSVKGRFTISRDNAKNTVYLQMNSLKPEDTAVYYCTALLMSSAGEYDVWGQGTQVTVSS
notes: Form: Monomer
Consider B6, for which the Kd in test [6] is around 6.57 µM.
